Experimental findings from patent publication US20080056998A1, “COMPOSITION AND PROCESSES FOR CROSSING THE BLOOD-BRAIN BARRIER WITH POLYPEPTIDES FOR IN VIVO NEUROIMAGING” (The General Hospital Corporation, priority 2006, published 2008) are described below.

Series [1] deals with mouse brain. The experiment in a line: in vivo NIR fluorescence imaging after intravenous injection. Particulars: mice; for crossing of the BBB / accumulation in the brain: MPAP-Cy5.5 at about 24 hours post-injection, Cy5.5 at any point in time; for NIR fluorescent signal in the brain in vivo: imaging 15 min to 44 hours. The method, then:
In the exemplary embodiment of the present invention, for in vivo optical imaging, n mice can be injected intravenously with about 2.5 nmol of the exemplary delivery module MPAP-Cy5.5, Cy5.5 alone, or saline solution. In an exemplary embodiment of the present invention, n=4 for each group of solutions for a total of 12 mice. Imaging can be performed at various times after injection. For example, it may be performed about 15 and 30 minutes after injection, as well as 1, 2, 3, 6, 24 and 44 hours after injection. For exemplary NIR fluorescent imaging, the mice can be placed into an imaging system, for example a Kodak Imaging Station IS2000MM, equipped with a band-pass filter at about 630 nm and a long pass filter at about 700 nm, such as the Chroma Technology Corporation. Exemplary images can be captured with e.g., charge-coupled device (“CCD”) camera embedded in the imaging system and exemplary analyses may be performed using Kodak ID3.6.3 imaging software.
Initially, after an exemplary intravenous injection of the delivery module into an mammal, such as a mouse, there may be no defined fluorescent signal in the brain for a few hours. […] An increase in the emitted light can occur 24 hours after injection 202, and the signal can continue to accumulate up to approximately 2 days or more 203.

Series [2] is described as follows: HPLC study of perfused brain homogenate. Type of series: in vivo, mouse. Particulars: brain perfused 24 hours after intravenous injection. The method, then: In a further exemplary embodiment of the present invention, the mouse brains can be perfused for 24 hours after injection of the delivery module in order to remove intravascular contents. The brain homogenates can then be subjected to exemplary High-Powered Liquid Chromatography (“HPLC”) analysis.
According to an exemplary embodiment of the present invention, n mice (n=4 for example) can be injected intravenously with the delivery module. The mouse brain uptake of the compound can be detected by HPLC after in situ brain perfusion. A perfused brain can be soaked in a HPLC mobile phase solution for 15 minutes and homogenized on ice using a mechanical homogenizer, such as that which is marketed by Virtis in Gardiner, N.Y. A resulting brain residue can be filtered using, for example, 0.45 Am Whatman Nylon filters, lyophilized, and analyzed by 2D-HPLC, such as that whish is marketed by Lachrome Elite, Hitachi in San Jose, Calif. […] In addition, the detected peak can be correlated and matched with the absorbance spectrum profile of Cy5.5 dye. […] Furthermore, the absorbance profile of this peak can correspond to the absorbance profile of Cy5.5 dye at approximately 670 nm 702.
Upon switching the detection wavelength to 220 nm, the retention time peak at 32 min can be detected along with other more polar peaks, such as those associated with brain metabolites.

For the next series, the system named is brain endothelium. Briefly: dual-channel confocal microscopy of brain endothelium. Type of series: in vivo. Particulars: intravenous, about 2.5 nmol; sacrificed 1, 3 or 6 hours after injection. The method, then:
Further, fluorescence confocal microscopy techniques/systems can be employed to investigate a delivery route of the delivery module after injection. For example, mammals can be injected intravenously with about 2.5 nmol of the exemplary delivery module MPAPCy5.5, perfused, and sacrificed 1, 3 or 6 hours after injection. Brain sections from the sacrificed animals may be frozen. The frozen brain sections can then be stained with, for example, anti-CD31 antibodies followed by FITC-conjugated secondary antibody as described above. Dual-channel confocal microscopy can be performed, for example, in the FITC and Cy5.5 channels. Further, confocal microscopy can be performed using, for example, an Axiovert 200 M inverted microscope (from, e.g., Carl Zeiss, Inc. Thornwood, N.Y.), equipped with an LSM Pascal Vario RGB Laser Module (Arg 458/488/514 nm, HeNe 543 nm, HeNe 633 nm). An exemplary confocal images with a slice thickness of, for example, <0.9 Am can be acquired to produce, for example, FITC and Cy5.5 staining as well as Nomarski optics. Exemplary summation projection of all background-corrected confocal slices can be produced using, for example, LSM 5 Pascal Software. Further, the exemplary confocal images can be color-coded with, for example, green for FITC and red for Cy5.5. […]

The test system of series [3] is neurons, astrocytes, and endothelial cells. Briefly: dual-channel fluorescence microscopy of stained brain sections. Type of series: in vivo, mouse. The text has this: When the exemplary MPAP-Cy5.5 delivery module penetrates the BBB, exemplary dual-channel fluorescence microscopy can be used to observe whether the distribution of the exemplary MPAP-Cy5.5 delivery module in the exemplary brain forms in a cell-type-specific manner. In a further exemplary embodiment of the present invention, an exemplary distribution of the exemplary MPAP-Cy5.5 delivery module within different cell types of a brain can be determined with dual-channel fluorescence microscopy. For example, cryopreserved serial brain sections from mice perfused with the MPAP-Cy5.5 delivery module can be stained for neurons, astrocytes, and endothelial cells using anti-neuronal nuclei antibody (such as, for example, NeuN, monoclonal, from Chemicon International, Temecula, Calif.), anti-glial fibrillary acidic protein antibody (such as, for example, GFAP from Chemicon International, Temecula, Calif.), and anti-CD31 (such as, for example PECAM-1 from BD Biosciences Pharmingen, San Jose, Calif.). The brain sections may be further incubated with corresponding FITC-conjugated secondary antibodies. Further, slides of the brain sections can be mounted in a mounting medium, such as, for example, a Vectashield mounting medium from Vector Laboratories in Burlingame, Calif. Dual-channel fluorescence microscopy in, for example, the Cy5.5 and FITC channels can be performed using, for example, a Nikon Eclipse 50i fluorescence microscope equipped with an appropriate filter set, such as, for example, one provided by Chroma Technology Corporation in Rockingham, Vt. Exemplary images can be acquired using a CCD camera with near-infrared sensitivity (such as, for example, a SPOT 7.4 Slider RTKE from Diagnostic Instruments in Sterling Heights, Mich.).
Although a mechanism for neuronal accumulation remains unclear, it may be possible that preferential targeting into neurons can be related to the higher lypophilicity of neuronal membranes as compared to other cell types. (See, e.g., publications 4 and 6.) Lypophilic peptides may have an advantage to penetrate by adsorptive endocytosis. […] However, some signal may be detectable in the thalamus 904 and the CA3 area of the hippocampus 905.

Series [4] concerns mouse brain. Briefly: ex vivo NIR fluorescence imaging of removed brains and coronal brain slices. Type of series: in vivo. Particulars: for ex vivo NIR fluorescent signal of removed brain: 24 hours after injection. The method, then:
In another exemplary embodiment of the present invention, fluorescence signals may be observed using exemplary ex vivo imaging performed on the exemplary mouse brains post injection of the exemplary delivery module. Exemplary Ex vivo NIR fluorescence imaging can be performed, e.g., 24 hours after the injection of the exemplary MPAP-Cy5.5 delivery module. Upon sacrificing the mice, each mouse brain can be removed, placed into the exemplary imaging system, and imaged as described above.
Additional observations regarding accumulation of the exemplary delivery module in the brain can be obtained after imaging 1 mm-thick coronal brain slices from the exemplary mouse brain. The exemplary mouse brain can be cut into 1 mm coronal brain sections using a slicing apparatus, such as the RBM-2000C provided by Analytical Scientific Instruments, taken at the following exemplary anteroposterior coordinates from bregma, e.g.: +1.1 mm, +0.1 mm, −0.9 mm, −1.9 mm. Referring to FIG. 6, the exemplary brain slices can then be placed into the exemplary imaging system and imaged 600 as described above.

As for “C14-βAla-(Arg)7-Cys(Cy5.5)-NH2 [MPAP-Cy5.5]”, in the series with mouse brain [1], the “crossing of the BBB / accumulation in the brain” value was “crossed the BBB and accumulate within the mouse brain”. Also, in the series with mouse brain [1] (about 2.5 nmol), the “time post-injection at which NIR fluorescent signal is detected in the brain (head summit)” value was 6 h, the “time up to which the brain signal continues to accumulate” value was at least 2 days and the “NIR fluorescent signal in the brain in vivo” value is on record as “progressively increasing NIR fluorescent signal”. For the same substance, the “accumulation in peripheral tissues / mouse body” value in the series on mouse brain [1] (kidneys and spleen) is “accumulation of the delivery module in peripheral tissues”. Also, the “degradation in systemic circulation (intact compound in brain homogenate by HPLC)” value in series [2] is reported as “may likely not degrade in systemic circulation”. Also, in the series on brain endothelium, the “time after injection to pass through the endothelium” value is at most 1 h. For the same substance, the accumulation in astrocytes result in series [3] (GFAP staining) is “may not show widespread accumulation”. In addition, in series [3] (NeuN staining), the accumulation in neurons entry was “primarily accumulate in neurons”. Further, in series [3] (anti-CD31 staining), the “localization in endothelial cells” value was “no significant localization”. The “distribution over brain regions” value in series [3] (cortex, hippocampus, thalamus) is recorded as “detected in almost all regions of the brain”. For the same substance, in series [3] (mouse, in vivo), the “subcellular localization in neurons” value was “predominantly localized within the cell cytoplasm”. In the series on mouse brain [4], the “ex vivo NIR fluorescent signal of removed brain” value is reported as “strong NIR fluorescent signal”. Moreover, the “distribution in 1 mm coronal brain slices” value in the series on mouse brain [4] (slices at +1.1, +0.1, −0.9, −1.9 mm from bregma) is “distributed randomly throughout the brain parenchyma”.
Take Cy5.5 [reference compound]: in the series on mouse brain [1], the “crossing of the BBB / accumulation in the brain” value is on record as “no accumulation in the brain”. In the series with mouse brain [1] (about 2.5 nmol), the “NIR fluorescent signal in the brain in vivo” value is “no signal appears”. For the same substance, the “ex vivo NIR fluorescent signal of removed brain” value with mouse brain [4] is reported as “no significant signal beyond background levels”.
